This note sets out measurements from patent US20150056222A1.

The target of this assay is mouse PRLR on HEK293 cells (mouse) (UniProt Q08501). Description: FACS, HEK293/mPRLR cells. (In general: Flow cytometry measures light scatter and fluorescence of single cells or particles in a stream.)
mouse PRLR on HEK293 cells (mouse), sequence (Q08501 20-608): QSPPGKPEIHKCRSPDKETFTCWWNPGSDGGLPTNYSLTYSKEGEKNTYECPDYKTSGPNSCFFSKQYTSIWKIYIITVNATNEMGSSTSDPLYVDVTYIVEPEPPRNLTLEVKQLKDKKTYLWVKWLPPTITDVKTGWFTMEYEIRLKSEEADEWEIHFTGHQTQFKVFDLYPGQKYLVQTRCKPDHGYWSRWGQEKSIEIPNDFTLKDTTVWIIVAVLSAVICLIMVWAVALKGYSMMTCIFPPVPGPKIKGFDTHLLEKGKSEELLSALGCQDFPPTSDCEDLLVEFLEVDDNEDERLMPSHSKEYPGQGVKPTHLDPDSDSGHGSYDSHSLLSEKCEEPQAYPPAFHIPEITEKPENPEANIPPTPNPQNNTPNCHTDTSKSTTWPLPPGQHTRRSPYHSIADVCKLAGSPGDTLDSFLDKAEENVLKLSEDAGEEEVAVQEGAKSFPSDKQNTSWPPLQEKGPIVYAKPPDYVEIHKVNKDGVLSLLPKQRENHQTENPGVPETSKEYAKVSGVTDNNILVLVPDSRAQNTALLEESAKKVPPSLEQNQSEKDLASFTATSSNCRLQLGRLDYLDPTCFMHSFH

B1: H1H6801P (antibody, human IgG1, V domains shown)
VH: QVQLQQSGPGLVKPSQTLSLTCVISGDSVSSNTAWNWVRQSPSRGLEWLGRTYYRSKWYNDYAVSVKSRITINPDTSKNQFSLLMNSVTPEDTAVYYCARVVRGLNYFDYWGQGTLVTVSS
VL: DIVMTQSPDSLAVSLGERATINCKSSQSVLYNSNNKNYLAWYQQKPGQPPKLLIYWSSSRESGVPDRFSGSGSGTDFTLTISGLQAEDVAIYYCQQYSTIPYTFGQGTKLEIK
B1 had an FACS Cell Binding (Fold Above Background) (fold above background) of 56.
